Data as given in US20240142454A1 (UNIVERSITY OF KENTUCKY RESEARCH FOUNDATION, published 2024).
Where no end group is shown, it is not given here.

B1: mouse monoclonal antibody 26A6 (antibody, mouse IgG2b, kappa, V domains shown)
VH: EVQLQQSGPVLVKPGASVKMSCKASGYTFTDFYLNWVKQSHGKTLEWIGVINPYNGITRYNQKFGGTATLTVDKSSSTAYMELNSLTSEDSAVYYCSRGGKTYYFDYWGQGTTLTVSP
VL: DVVMTQSPLSLPVSLGDQASISCRSSQSLVHSNGNTYLHWYLQKPGQSPKLLIYKVSNRFSGVPDRFSGSGSGTDFTLKINRVEAEDLGVYFCSQSTHVPPVTFGGGTKLEIKR
notes: used as hybridoma supernatant or Protein G-purified; also called 26A6 mAb; hybridoma ATCC PTA-126751
B2: immunizing peptide CGGGESVLTLK (peptide)
peptide: CGGGESVLTLK
modifications: also: conjugated to KLH for immunization
notes: Conjugated to KLH for immunization; also called peptide antigen; peptide ESVLTLK424

How the values were obtained:
[1] = target: B2; assay: ELISA on the immunizing peptide
Method: These mice were selected for further boosting and fusion with a Sp2/0 myeloma partner. The resulting hybridomas were screened first in ELISA assays to the immunizing peptide and secondly in Western blot assays to the uncleaved and cleaved CN, to confirm that they selectively bound the cleaved CN. A positive clone was identified-26A6. This clone was developed/subcloned further and characterized as to isotype. 26A6 is an IgG2b with a kappa light chain.
ELISA assays were carried out at GenScript. The immunizing peptide itself was bound to plates at a concentration of 1 μg/ml, 100 μl per well and supernatants from the hybridomas were used to bind to the peptide. An anti-IgG-HRP conjugated secondary antibody was used to detect the primary 26A6 antibody.

[2] = target: B1; assay: competition in immunofluorescence of human brain sections
Method: Slides were baked in a 40° C. oven overnight, then deparaffinized using SafeClear (Fisher Scientific, Hampton, NH), and rehydrated through a series of alcohols and finally into PBS. Antigen retrieval was carried out in pressurized decloaking chamber (BioCare Medical, Concord, CA), according to manufacturer's directions using the Borg antigen retrieval solution (BioCare Medical, Concord, CA). Following antigen retrieval, slides were washed 3× in PBS. For sections designated for staining with the β-amyloid antibody downstream, the sections were treated with 70% formic acid for 5 mins, then washed. All sections were treated with 3% H₂O₂ in methanol to block endogenous […] activity. Slides were washed in PBS and sections were either stained for immunofluorescence or immunohistochemistry.
For immunofluorescence, sections were incubated in blocking solution (PBS with 3% bovine serum albumin, 5% goat serum, and 0.05% Triton X 100) for 30 minutes, and incubated overnight at room temperature in primary antibody in that same blocking solution. Primary antibodies used were: rabbit anti-GFAP (1:200; catalog #12389, Cell Signaling Technology, Danviers, MA) and mouse 26A6 hybridoma supernatants diluted 1:5 or 10 ug/ml of purified 26A6 antibody. Sometimes 75 μg/ml immunizing peptide was included with the 26A6 antibody as a negative control. […]

B1: binds [1].

B2: binds [2].
